According to patent US6979673 (University of Pennsylvania, dated 2005):

T1: PRL (human prolactin, untagged or form not specified: serum PRL; PRL added to cell cultures) (human, UniProt P01236 29-227)
T1 sequence (looked up): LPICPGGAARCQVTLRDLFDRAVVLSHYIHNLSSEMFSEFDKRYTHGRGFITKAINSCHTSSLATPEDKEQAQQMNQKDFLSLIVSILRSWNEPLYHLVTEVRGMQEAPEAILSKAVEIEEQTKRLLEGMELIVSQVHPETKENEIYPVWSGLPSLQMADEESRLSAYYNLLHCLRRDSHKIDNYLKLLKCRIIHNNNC

B1: myc-tagged PRL (recombinant human prolactin from Drosophila S2 cells) (ligand, UniProt P01236 29-227, looked up, not shown: small tags and cut ends)
chain: T1 sequence (looked up)
notes: mature
B2: His-tagged CypB (cyclophilin B, recombinant, V5/His-tagged, from Drosophila S2 cells) (enzyme)
chain: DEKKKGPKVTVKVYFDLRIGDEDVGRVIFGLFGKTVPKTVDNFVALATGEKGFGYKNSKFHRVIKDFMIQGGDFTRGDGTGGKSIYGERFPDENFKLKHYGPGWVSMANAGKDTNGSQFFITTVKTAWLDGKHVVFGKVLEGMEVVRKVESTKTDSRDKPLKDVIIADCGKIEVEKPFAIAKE
notes: also called wild-type CypB; sepharose-conjugated, recombinant CypB; not shown: C-terminal bifunctional V5/His-tag of vector pAc5/V5-HisA

Experiments:
[1] = target: recombinant form of cyclophilin family member CypA (UniProt P62937 1-165, limits assumed); test: co-immunoprecipitation of admixed recombinant proteins
[2] = target: B1; test: co-immunoprecipitation of admixed purified proteins, with cyclosporin A against without
Experimental: Immunoblots were blocked for one hour at room temperature with 5% milk in PBS containing 1% TWEEN-20 (PBST) and immunoblotted with a monoclonal anti-myc antibody (1:1000, mAb 9E10) for one hour. Immunoblots were analyzed by incubation with an anti-mouse secondary antibody conjugated to horseradish peroxidase (1:2000, Boehringer Mannheim) for one hour followed by incubation with ECL Plus (Amersham Pharmacia Biotech) amnd exposure to Biomax film (Kodak).

[3] = target: growth hormone (GH) (human, UniProt P01241 27-217); test: cell-based or functional assay
[4] = target: T1, PRL (human prolactin, untagged or form …); test: cell-based or functional assay

growth hormone (GH), sequence (P01241 27-217 limits assumed): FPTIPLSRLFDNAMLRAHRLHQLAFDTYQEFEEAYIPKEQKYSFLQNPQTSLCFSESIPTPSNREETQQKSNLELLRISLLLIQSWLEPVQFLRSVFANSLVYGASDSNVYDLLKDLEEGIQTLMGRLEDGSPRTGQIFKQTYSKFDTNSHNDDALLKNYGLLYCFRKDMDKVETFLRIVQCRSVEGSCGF
recombinant form of cyclophilin family member CypA, sequence (P62937 whole entry): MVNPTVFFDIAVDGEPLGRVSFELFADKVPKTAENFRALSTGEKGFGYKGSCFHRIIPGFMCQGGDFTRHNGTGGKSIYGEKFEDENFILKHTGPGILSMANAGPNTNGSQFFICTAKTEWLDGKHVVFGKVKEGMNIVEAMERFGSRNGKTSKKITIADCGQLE

| binding result [1] | fold enhancement of the interaction on addition of CsA [2] | GH-driven proliferation [3] | PRL-driven growth of Nb2 cells (3H-thymidine) [4] | Binder |
| --- | --- | --- | --- | --- |
| no binding |  |  |  | B1 |
|  | ~10 fold | 40 fold | ≤ 8 fold | B2 |
